Experiment [1] deals with T1, human c-Met/Fc fusion protein (R&D Systems) (human, UniProt P08581 25-932).
T1 construct: Bought reagent; also called c-Met-Fc (#358-MT/CF, R&D Systems); human c-Met/Fc protein; not shown: Fc part of the bought fusion protein
As to the kind of experiment: ELISA, human c-Met/Fc fusion protein coated on plate, hybridoma culture, anti-mouse IgG-HRP. How it is done: Human c-Met/Fc fusion protein was seeded in an amount of 50 μL (2 μg/mL)/well to microtiter plates and allowed to adhere to the surface of each well. The antibody that remained unbound was removed by washing.
The hybridoma cell culture obtained in Reference Example 1.1.2 was added in an amount of 50 μL to each well of the plates and incubated for 1 hour. The cells remaining unreacted were washed out with a sufficient amount of Tris-buffered saline and Tween 20 (TBST). Goat anti-mouse IgG-horseradish peroxidase (HRP) was added to the plates and incubated for 1 hour at room temperature. The plates were washed with a sufficient amount of TBST, followed by reacting the peroxidase with a substrate (OPD). Absorbance at 450 nm was measured on an ELISA reader.
A general note: ELISA stands for enzyme-linked immunosorbent assay.

In the next experiment the target is VEGF (R&D systems) (UniProt P15692-4 27-191, limits assumed). Put plainly: SPR (Biacore T100), CM5 chip, VEGF; format unclear in the text. How it is done: An examination on whether the 8 anti-c-Met/anti-VEGF bispecific antibodies prepared in Example 2 maintains binding affinity to VEGF was conducted using Biacore T100(GE). VEGF (R&D systems) immobilized on the surface of CM5 chip (#BR-1005-30, GE) by amino coupling according to the manufacturer's instructions. About 90˜120 RU of the anti-c-Met/anti-VEGF bispecific antibody was captured, and […] was injected thereto at various concentrations. Then, a solution containing 1M NaCl and 5 mM NaOH was injected thereto to regenerate the surface. The obtained data were fitted using BlAevaluation software (GE Healthcare, Biacore T100 evaluation software), to measure the binding affinity to VEGF.
Chain of VEGF (R&D systems) (P15692 other isoform, or with tags, fused parts or gaps limits assumed): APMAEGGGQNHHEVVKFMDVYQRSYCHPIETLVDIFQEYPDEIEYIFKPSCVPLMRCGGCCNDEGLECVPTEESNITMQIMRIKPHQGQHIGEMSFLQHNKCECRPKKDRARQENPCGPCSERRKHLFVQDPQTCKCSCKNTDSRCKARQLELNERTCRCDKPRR
Background: SPR reads the build-up and loss of mass on a sensor chip optically.

In experiment [2] the target is T1, human c-Met/Fc fusion protein (R&D …). As to the kind of experiment: SPR (Biacore T100), bispecific captured by human Fab binder on CM5 chip, c-Met-Fc injected. As for the experimental part: An examination on whether the anti-c-Met/anti-VEGF bispecific antibody maintains binding affinity to c-Met was conducted using Biacore T100(GE). A human Fab binding agent (GE Healthcare) was immobilized onto a CM5 chip (#BR-1005-30, GE) according to the manufacturer's instructions. About 90˜120 RU of the anti-c-Met/anti-VEGF bispecific antibody was captured, and c-Met-Fc (#358-MT/CF, R&D Systems) was injected thereto at various concentrations. Then, 10 mM Glycine-HCl (pH 2.1) solution was injected thereto to regenerate the surface. The obtained data were fitted using BlAevaluation software (GE Healthcare, Biacore T100 evaluation software), to measure the binding affinity to c-Met.

T1 sequence (P08581 25-932 limits assumed): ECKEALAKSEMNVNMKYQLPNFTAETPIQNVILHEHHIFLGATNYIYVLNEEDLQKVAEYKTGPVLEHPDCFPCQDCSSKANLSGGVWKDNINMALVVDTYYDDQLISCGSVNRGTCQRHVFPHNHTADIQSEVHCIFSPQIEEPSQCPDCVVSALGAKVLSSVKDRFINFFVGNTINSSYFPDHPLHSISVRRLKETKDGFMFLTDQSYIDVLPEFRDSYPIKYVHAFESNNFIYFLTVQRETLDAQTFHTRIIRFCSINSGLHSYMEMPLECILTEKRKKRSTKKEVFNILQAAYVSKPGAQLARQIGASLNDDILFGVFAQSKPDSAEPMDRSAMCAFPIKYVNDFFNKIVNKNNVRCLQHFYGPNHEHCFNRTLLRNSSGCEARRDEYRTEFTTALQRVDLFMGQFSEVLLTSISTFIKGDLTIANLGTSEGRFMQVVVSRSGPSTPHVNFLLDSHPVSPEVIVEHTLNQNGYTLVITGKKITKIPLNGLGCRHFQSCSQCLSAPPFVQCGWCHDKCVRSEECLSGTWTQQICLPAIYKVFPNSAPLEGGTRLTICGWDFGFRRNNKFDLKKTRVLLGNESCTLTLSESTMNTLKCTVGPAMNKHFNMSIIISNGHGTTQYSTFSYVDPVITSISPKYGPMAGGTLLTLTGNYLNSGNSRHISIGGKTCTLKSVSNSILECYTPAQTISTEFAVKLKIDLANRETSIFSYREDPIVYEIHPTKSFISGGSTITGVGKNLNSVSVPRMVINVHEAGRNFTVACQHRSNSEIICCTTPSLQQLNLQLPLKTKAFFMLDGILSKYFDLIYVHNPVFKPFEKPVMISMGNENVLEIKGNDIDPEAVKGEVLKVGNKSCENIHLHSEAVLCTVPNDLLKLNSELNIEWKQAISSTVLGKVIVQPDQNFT

B1: AbF46, mouse monoclonal antibody to c-Met (antibody, V domains shown)
VH: EVKLVESGGGLVQPGGSLRLSCATSGFTFTDYYMSWVRQPPGKALEWLGFIRNKANGYTTEYSASVKGRFTISRDNSQSILYLQMDTLRAEDSATYYCARDNWFAYWGQGTLVTVSA
VL: DILMTQSPSSLTVSAGEKVTMSCKSSQSLLASGNQNNYLAWHQQKPGRSPKMLIIWASTRVSGVPDRFIGSGSGTDFTLTINSVQAEDLAVYYCQQSYSAPLTFGAGTKLELK
notes: Tested as hybridoma culture supernatant in the selection ELISA; also called antibody of hybridoma KCLRF-BP-00220
Regarding B1, the binding result in experiment [1] is given as “binds”.

B2: MV-20 anti-c-Met/anti-VEGF bispecific antibody (bispecific antibody, human IgG2, kappa)
heavy: EVQLVESGGGLVQPGGSLRLSCAASGFTFTDYYMSWVRQAPGKGLEWLGFIRNKANGYTTEYSASVKGRFTISRDNSKNTLYLQMNSLRAEDTAVYYCARDNWFAYWGQGTLVTVSSASTKGPSVFPLAPCSRSTSESTAALGCLVKDYFPEPVTVSWNSGALTSGVHTFPAVLQSSGLYSLSSVVTVPSSNFGTQTYTCNVDHKPSNTKVDKTVERKCCVECPPCPAPPVAGPSVFLFPPKPKDTLMISRTPEVTCVVVDVSHEDPEVQFNWYVDGVEVHNAKTKPREEQFNSTFRVVSVLTVVHQDWLNGKEYKCKVSNKGLPAPIEKTISKTKGQPREPQVYTLPPSREEMTKNQVSLTCLVKGFYPSDIAVEWESNGQPENNYKTTPPMLDSDGSFFLYSKLTVDKSRWQQGNVFSCSVMHEALHNHYTQKSLSLSPGKGGGGSGGGGSEVQLLESGGGLVQPGGSLRLSCAASGFTFSNYDMSWVRQAPGKGLEWVSLISHGGGNIYYADSVKGRFTISRDNSKNTLYLQMNSLRAEDTAVYYCARVPVMCTNHWCSYANGMDVWGQGTLVTVSSGGGGSGGGGSGGGGSQSVLTQPPSASGTPGQRVIISCSASSSNIGSNAVYWYQQLPGTAPKLLIYSDNQRPSGVPDRFSGSKSGTSASLAISGLRSEDEADYYCGSWDYSLSAYVFGGGTKLTVLG
light: DIQMTQSPSSLSASVGDRVTITCKSSQSLLASGNQNNYLAWYQQKPGKAPKMLIIWASTRVSGVPSRFSGSGSGTDFTLTISSLQPEDFATYYCQQSYSRPYTFGQGTKVEIKRTVAAPSVFIFPPSDEQLKSGTASVVCLLNNFYPREAKVQWKVDNALQSGNSQESVTEQDSKDSTYSLSSTLTLSKADYEKHKVYACEVTHQGLSSPVTKSFNRGEC
Broadly, the Kd is a measure of binding affinity in units of concentration. High values mean weaker binding, low ones tighter binding. For the molecule B2, the Kd in the experiment with VEGF (R&D systems) turned out to be 4.43 nM; in experiment [2], 0.04 nM.

B3: MV-22 anti-c-Met/anti-VEGF bispecific antibody (bispecific antibody, human IgG2, kappa)
heavy: EVQLVESGGGLVQPGGSLRLSCAASGFTFTDYYMSWVRQAPGKGLEWLGFIRNKANGYTTEYSASVKGRFTISRDNSKNTLYLQMNSLRAEDTAVYYCARDNWFAYWGQGTLVTVSSASTKGPSVFPLAPCSRSTSESTAALGCLVKDYFPEPVTVSWNSGALTSGVHTFPAVLQSSGLYSLSSVVTVPSSNFGTQTYTCNVDHKPSNTKVDKTVERKCCVECPPCPAPPVAGPSVFLFPPKPKDTLMISRTPEVTCVVVDVSHEDPEVQFNWYVDGVEVHNAKTKPREEQFNSTFRVVSVLTVVHQDWLNGKEYKCKVSNKGLPAPIEKTISKTKGQPREPQVYTLPPSREEMTKNQVSLTCLVKGFYPSDIAVEWESNGQPENNYKTTPPMLDSDGSFFLYSKLTVDKSRWQQGNVFSCSVMHEALHNHYTQKSLSLSPGKGGGGSGGGGSEVQLLESGGGLVQTGGSLRLSCAASGFTFSDYAMSWVRQAPGKGLEWVSWIYPGDSSIYYADSVKGRFTISRDNSKNTLYLQMNSLRAEDTAVYYCARLLSIDQAQLHYYYDAMDVWGQGTLVTVSSGGGGSGGGGSGGGGSQSVLTQPPSPSGTPGQRVTISCTGSSSNIGNYYVYWYQQLPGTAPKLLIYANSHRPSGVPDRFSGSKSGTSASLAISGLRSEDEADYYCGSWDDSLSAYVFGGGTKLTVLG
light: B2 light
B3: the values for the Kd (with VEGF (R&D systems); in experiment [2]) were 2.2 nM and 0.06 nM, respectively.

B4: MV-21 anti-c-Met/anti-VEGF bispecific antibody (bispecific antibody, human IgG2, kappa)
heavy: EVQLVESGGGLVQPGGSLRLSCAASGFTFTDYYMSWVRQAPGKGLEWLGFIRNKANGYTTEYSASVKGRFTISRDNSKNTLYLQMNSLRAEDTAVYYCARDNWFAYWGQGTLVTVSSASTKGPSVFPLAPCSRSTSESTAALGCLVKDYFPEPVTVSWNSGALTSGVHTFPAVLQSSGLYSLSSVVTVPSSNFGTQTYTCNVDHKPSNTKVDKTVERKCCVECPPCPAPPVAGPSVFLFPPKPKDTLMISRTPEVTCVVVDVSHEDPEVQFNWYVDGVEVHNAKTKPREEQFNSTFRVVSVLTVVHQDWLNGKEYKCKVSNKGLPAPIEKTISKTKGQPREPQVYTLPPSREEMTKNQVSLTCLVKGFYPSDIAVEWESNGQPENNYKTTPPMLDSDGSFFLYSKLTVDKSRWQQGNVFSCSVMHEALHNHYTQKSLSLSPGKGGGGSGGGGSEVQLLESGGGLVQPGGSLRLSCAASGFTFSGYAMSWVRQAPGKGLEWVSGISHDGGNTYYADSVKGRFTISRDNSKNTLYLQMNSLRAEDTAVYYCARDRRKGPSTEFDYWGQGTLVTVSSGGGGSGGGGSGGGGSQSVLTQPPSLSGTPGQRVTISCTGSSSNIGSNSVSWYQQLPGTAPKLLIYDDNNRPSGVPDRFSGSKSGTSASLAISGLRSEDEADYYCGAWDYSLSAYVFGGGTKLTVLG
light: B2 light
B4: the Kd with VEGF (R&D systems) turned out to be 8.27 nM; in experiment [2], 0.04 nM.

Values taken from US20160090427A1 (SAMSUNG ELECTRONICS, published 2016).
